Measurements as given in patent US20130115645.

Biological target: human prothrombin (Enzyme Research Laboratories), P00734

B1: Fibrinogen-like protein 2 (FGL-2)/fibroleukin, human (protein)
chain: NNETEEIKDERAKDVCPVRLESRGKCEEAGECPYQVSLPPLTIQLPKQFSRIEEVFKEVQNLKEIVNSLKKSCQDCKLQADDNGDPGRNGLLLPSTGAPGEVGDNRVRELESEVNKLSSELKNAKEEINVLHGRLEKLNLVNMNNIENYVDSKVANLTFVVNSLDGKCSKCPSQEQIQSRPVQHLIYKDCSDYYAIGKRSSETYRVTPDPKNSSFEVYCDMETMGGGWTVLQARLDGSTNFTRTWQDYKAGFGNLRREFWLGNDKIHLLTKSKEMILRIDLEDFNGVELYALYDQFYVANEFLKYRLHVGNYNGTAGDALRFNKHYNHDLKFFTTPDKDNDRYPSGNCGLYYSSGWWFDACLSANLNGKYYHQKYRGVRNGIFWGTWPGVSEAHPGGYKSSFKEAKMMIRPKHFKP
- FGL-2 prothrombinase activity (thrombin generation assay, chromogenic substrate, 405 nm): FGL-2 prothrombinase activity in HUVEC was only observed following maximal stimulation with TNFα
